This note sets out measurements from patent US20100330649A1.

Series [1] addresses His8-cytb5R (soluble form of human cytochrome b5 reductase with N-terminal His8 tag) (human) (UniProt P00387). In words: cell-based or functional assay.
Series [2] deals with His8-cytb5-sd (human cytochrome b5 soluble domain with N-terminal His8 tag) (UniProt P00167).
Series [3] has as its target His8-MBP-fl-cytb5 fusion protein.

UniProt P00167, sequence (P00167 1-97): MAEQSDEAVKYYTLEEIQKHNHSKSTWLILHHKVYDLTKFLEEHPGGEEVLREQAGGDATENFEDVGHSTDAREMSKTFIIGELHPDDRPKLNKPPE
UniProt P00387, sequence (P00387 24-301): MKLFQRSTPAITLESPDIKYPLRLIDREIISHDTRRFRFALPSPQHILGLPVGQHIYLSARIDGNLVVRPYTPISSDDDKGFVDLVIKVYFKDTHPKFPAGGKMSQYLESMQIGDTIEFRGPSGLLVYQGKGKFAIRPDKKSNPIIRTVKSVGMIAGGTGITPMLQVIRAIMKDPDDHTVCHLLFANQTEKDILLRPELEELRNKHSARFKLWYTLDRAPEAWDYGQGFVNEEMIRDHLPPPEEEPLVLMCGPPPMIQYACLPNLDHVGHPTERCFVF

In series [1], “His8-cytb5-sd (human cytochrome b5 soluble domain with N-terminal His8 tag) (from UniProt P00167 1-97)” yielded a V/K, µM^-1 s^-1 (steady-state reduction of cytb5 by His8-cytb5R with NADH) of 5e+06 M⁻¹ s⁻¹.
As to “His8-cytb5R (soluble form of human cytochrome b5 reductase with N-terminal His8 tag)”, in series [2], the Km, µM (steady-state reduction of cytb5 by His8-cytb5R with NADH) was 5 µM and the Vmax, s^-1 (steady-state reduction of cytb5 by His8-cytb5R with NADH, absorbance at 413 nm) amounted to 25 s⁻¹.

B1: tobacco etch virus (TEV) protease (protein)
chain: GESLFKGPRDYNPISSTICHLTNESDGHTTSLYGIGFGPFIITNKHLFRRNNGTLLVQSLHGVFKVKNTTTLQQHLIDGRDMIIIRMPKDFPPFPQKLKFREPQREERICLVTTNFQTKSMSSMVSDTSCTFPSSDGIFWKHWIQTKDGQCGSPLVSTRDGFIVGIHSASNFTNTNNYFTSVPKNFMELLTNQEAQQWVSGWRLNADSVLWGGHKVFMSKPEEPFQPVKEATQLMNE
As to B1, the “site-specific proteolysis of the linker (SDS-PAGE)” value in series [3] was “a satisfactory reaction was obtained at a ratio of His8-MBP-fl-cytb5 to TEV protease of 10:1 (reaction completed in 30 min)”.
